Experimental findings from the Immune Epitope Database (IEDB) are described below.

One assay concerns the target HLA-A*30:01. Put plainly: IEDB peptide-MHC binding, purified MHC/competitive/radioactivity; filed as Kd, often an IC50 or EC50 that approximates it; ≥ and ≤ were set here for values at or beyond the usual limits of such assays.
The next assay deals with HLA-A*30:02. The description is as above.
A further assay concerns the target HLA-A*26:01. Described as above.
For a further assay, the target named is HLA-A*01:01. Described as above.
Another assay concerns the target HLA-A*02:06. The description is as above.
The target of the next assay is HLA-A*03:01. The experiment in a line: IEDB peptide-MHC binding, purified MHC/direct/fluorescence; filed as Kd, often an IC50 or EC50 that approximates it; ≥ and ≤ were set here for values at or beyond the usual limits of such assays. The following applies: source organism: Mycobacterium tuberculosis.
A further assay deals with HLA-A*23:01. The experiment in a line: IEDB peptide-MHC binding, purified MHC/competitive/radioactivity; filed as Kd, often an IC50 or EC50 that approximates it; ≥ and ≤ were set here for values at or beyond the usual limits of such assays.
The target of the next assay is HLA-A*02:02. The assay is described as above.
The next assay deals with HLA-A*02:03. The assay is described as above.
For another assay, the target named is HLA-A*69:01. Put plainly: IEDB peptide-MHC binding, purified MHC/direct/fluorescence; filed as Kd, often an IC50 or EC50 that approximates it; ≥ and ≤ were set here for values at or beyond the usual limits of such assays. The following applies: source organism: Mycobacterium tuberculosis.
[1] abbreviates: source organism: Vaccinia virus WR.
The mark [2] stands for this setting: source organism: Dengue virus 2 Jamaica/1409/1983.
The mark [3] stands for this setting: source organism: Dengue virus 4 Philippines/H241/1956.
Where [4] appears, read: source organism: Dengue virus 3 Martinique/1243/1999.
Where [5] appears, read: source organism: Dengue virus 1 Brazil/97-11/1997.
The mark [6] stands for this setting: source organism: Dengue virus 1 Singapore/S275/1990.
[7] abbreviates: source organism: Dengue virus 2 Peru/IQT2913/1996.
The mark [8] stands for this setting: source organism: Lymphocytic choriomeningitis virus (strain Armstrong).
Where [9] appears, read: source organism: SARS coronavirus Tor2.

For KTIWEIPQK, the Kd (in general, the equilibrium constant for the complex coming apart) with HLA-A*30:01 (setting [1]) was 11.8 nM.
On to LTTRNGEPHM, for which, in the assay with HLA-A*30:01 (setting [2]), the Kd was found to be 13700 nM.
In the case of VDYMPVMKRY, the Kd with HLA-A*30:02 (setting [3]) was found to be 76.4 nM.
In the case of QNYVCKHTY, in the assay with HLA-A*30:02 (setting [4]), the dissociation constant Kd was not below 76900 nM.
In the case of GGMLVRNPLS, the Kd in the assay with HLA-A*30:01 (setting [5]) turned out to be 4270 nM.
For NAICSAVPVH, the equilibrium dissociation constant (Kd) in the assay with HLA-A*30:01 (setting [4]) was determined as 2950 nM.
Turning to KARCNHLTK, in the assay with HLA-A*30:01 (setting [1]), the Kd amounted to 0.214 nM.
EKTQAIDGEF: the dissociation constant Kd with HLA-A*26:01 (source organism: Dengue virus 4 Dominica/814669/1981) is not below 69700 nM.
As for EISNMLNIM, the Kd in the assay with HLA-A*26:01 (setting [6]) was 476 nM.
On to ALTLATGPIT, for which the dissociation constant (Kd) with HLA-A*30:01 (setting [4]) was 159 nM.
Turning to KARNTPFNM, the dissociation constant (Kd) with HLA-A*30:01 (setting [7]) was found to be 169 nM.
Turning to HLRDQSIKI, the Kd with HLA-A*30:01 (setting [1]) came to 15.2 nM.
As for GVYPMSIPAT, the Kd in the assay with HLA-A*30:01 (setting [5]) amounted to 10400 nM.
For HVFQEYRLK, the Kd with HLA-A*30:01 (setting [1]) amounted to 26.6 nM.
Regarding LRFLAIPPTA, the Kd with HLA-A*30:01 (setting [5]) amounted to 3130 nM.
For FTDENKWKS, the equilibrium dissociation constant (Kd) with HLA-A*01:01 (setting [2]) was 5260 nM.
As for INRFTMKHK, the Kd with HLA-A*30:01 (setting [2]) is 7950 nM.
Consider QGKRTLTPQP, for which, in the assay with HLA-A*30:01 (setting [4]), the dissociation constant (Kd) is 1270 nM.
As to RSKNTIIIA, in the assay with HLA-A*30:01 (setting [1]), the Kd was 0.163 nM.
On to STVSQLAKRF, for which, in the assay with HLA-A*26:01 (source organism: Dengue virus 1 Nauru/West Pac/1974), the Kd was 3590 nM.
VTARWLWGFL: the Kd with HLA-A*01:01 (setting [6]) was found to be 8660 nM.
Consider EVEDYGFGM, for which the Kd with HLA-A*26:01 (setting [3]) came out at 3900 nM.
Consider LSRKTFDTEY, for which the Kd in the assay with HLA-A*01:01 (setting [5]) came out at 503 nM; with HLA-A*30:02 (setting [5]), 975 nM.
ITDFVGKTV: the Kd in the assay with HLA-A*01:01 (source organism: Dengue virus 3 Singapore/8120/1995) was not below 39700 nM.
For SITLATGPLT, in the assay with HLA-A*30:01 (setting [5]), the Kd turned out to be 3930 nM.
Take FTDPASIAA: the Kd amounted to 7.26 nM in the assay with HLA-A*01:01 (setting [2]) and 32.6 nM in the assay with HLA-A*02:06 (setting [2]).
For VLIDAGLPK, the Kd in the assay with HLA-A*03:01 is 319 nM.
Regarding GYISTRVEM, in the assay with HLA-A*23:01 (setting [2]), the Kd was found to be 1140 nM.
Turning to SKIPGGNMY, the Kd with HLA-A*30:02 (setting [5]) is 2450 nM.
With MANIFRGSY, the Kd with HLA-A*30:02 (setting [2]) stood at 113 nM.
On to SSVNMISRM, for which, in the assay with HLA-A*26:01 (setting [2]), the Kd worked out at 1340 nM.
As for DVNSVQFSI, the values for the Kd with HLA-A*02:02 (setting [1]), with HLA-A*02:03 (setting [1]) and with HLA-A*02:06 (setting [1]) were 10400 nM, 16200 nM and 16900 nM, respectively.
On to QVGTYGLNTF, for which, in the assay with HLA-A*23:01 (setting [2]), the Kd was found to be 790 nM.
KFKLTLPNK: in the assay with HLA-A*30:01 (setting [1]), the Kd was 12.1 nM.
Turning to GMYYPTNDI, the Kd was found to be 53.1 nM in the assay with HLA-A*02:02 (setting [1]), 8.71 nM with HLA-A*02:03 (setting [1]) and 1680 nM with HLA-A*02:06 (setting [1]).
On the same counts, the results for NVISKIYTLI are 0.985 nM, 32.7 nM and 196 nM.
For the sequence SCDDVVFGI, the values for the Kd in the assay with HLA-A*02:02 (setting [8]), with HLA-A*02:03 (setting [8]) and with HLA-A*02:06 (setting [8]) were 2150 nM, not below 50400 nM and 14500 nM, respectively.
As to WIKNLETYT, the Kd came out at 18300 nM with HLA-A*02:02 (setting [1]), 637 nM in the assay with HLA-A*02:03 (setting [1]) and 8210 nM in the assay with HLA-A*02:06 (setting [1]).
In the case of YLRGHTESI, the results for the Kd in the assay with HLA-A*02:02 (setting [1]), in the assay with HLA-A*02:03 (setting [1]) and with HLA-A*02:06 (setting [1]) were 0.206 nM, 0.176 nM and 90.9 nM, respectively.
Take KVSCTILAA: the Kd in the assay with HLA-A*30:01 (setting [2]) was determined as 67.7 nM.
On to LCLIPTAMAF, for which the Kd with HLA-A*23:01 (setting [3]) was determined as 1080 nM.
For the sequence YASLTTIGT, the results for the Kd with HLA-A*02:02 (setting [1]), with HLA-A*02:03 (setting [1]) and with HLA-A*02:06 (setting [1]) were 409 nM, 144 nM and 161 nM, respectively.
As to RAIASMIMY, the Kd with HLA-A*30:01 (setting [1]) came out at 71.1 nM.
Turning to VADLSARNKL, the Kd with HLA-A*02:02 (setting [1]) was 1170 nM; with HLA-A*02:03 (setting [1]), 2160 nM; in the assay with HLA-A*02:06 (setting [1]), not below 35800 nM.
Take TSETFSMGL: in the assay with HLA-A*01:01 (setting [3]), the Kd turned out to be 7690 nM.
PTSEIQLTDY: the dissociation constant (Kd) in the assay with HLA-A*01:01 (setting [5]) is 255 nM; with HLA-A*26:01 (setting [5]), not below 69700 nM.
For YSQVNPLTL, in the assay with HLA-A*01:01 (setting [5]), the dissociation constant (Kd) came out at 1010 nM.
Turning to EKMEALQRKY, the dissociation constant (Kd) in the assay with HLA-A*26:01 (source organism: Dengue virus 2 16681-PDK53) amounted to 6380 nM.
With RRRTAGMII, in the assay with HLA-A*30:01 (setting [7]), the Kd amounted to 4830 nM.
With TFIRSTMPL, in the assay with HLA-A*23:01 (setting [3]), the Kd came out at 255 nM.
On to FQESFYEDI, for which the Kd with HLA-A*02:02 (setting [1]) came out at 2280 nM; in the assay with HLA-A*02:03 (setting [1]), 4420 nM; with HLA-A*02:06 (setting [1]), 185 nM.
Turning to GAKIIHRYA, in the assay with HLA-A*30:01 (setting [1]), the Kd came to 118 nM.
With ITTATRCPTQ, in the assay with HLA-A*30:01 (setting [3]), the Kd worked out at 9440 nM.
As for PVDLVKSSFV, the dissociation constant (Kd) was 6610 nM with HLA-A*02:02 (setting [1]), 9640 nM in the assay with HLA-A*02:03 (setting [1]) and not below 26600 nM with HLA-A*02:06 (setting [1]).
YLAENTFVV: the dissociation constant (Kd) with HLA-A*69:01 amounted to 15.7 nM.
For FLAFLLFLV, the Kd turned out to be 1.81 nM in the assay with HLA-A*02:02 (setting [9]), 58.3 nM with HLA-A*02:03 (setting [9]) and 9 nM in the assay with HLA-A*02:06 (setting [9]).
As to KVKNHIPNI, the Kd with HLA-A*30:01 (setting [1]) was found to be 0.684 nM.
